Consider three molecules from patent US20190382482A1 (GlaxoSmithKline, published 2019).

For experiment [1], the target named is T1, Recombinant human LAG-3 ECD-His6 (human, UniProt P18627 23-433).
T1 construct: Entry holds the ECD with the C-terminal His6; also called LAG-3-His; recombinant human LAG-3-His
T1 sequence: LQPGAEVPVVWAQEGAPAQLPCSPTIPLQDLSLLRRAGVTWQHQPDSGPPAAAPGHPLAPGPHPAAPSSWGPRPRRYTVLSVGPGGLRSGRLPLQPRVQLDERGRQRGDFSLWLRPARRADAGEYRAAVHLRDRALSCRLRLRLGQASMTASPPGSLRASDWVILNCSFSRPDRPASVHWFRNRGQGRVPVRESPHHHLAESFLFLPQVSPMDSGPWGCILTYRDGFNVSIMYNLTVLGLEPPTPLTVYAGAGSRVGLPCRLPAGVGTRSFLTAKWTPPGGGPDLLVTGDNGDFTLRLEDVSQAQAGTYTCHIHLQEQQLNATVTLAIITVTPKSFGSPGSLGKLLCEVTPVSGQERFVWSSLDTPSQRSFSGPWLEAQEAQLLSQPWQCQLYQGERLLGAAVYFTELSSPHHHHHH
The experiment is described as follows: SPR Biacore T100, Anova comparison of KD, 3 runs. How it is done: (§1) Wild type fucosylated and afucosylated antibodies were compared for their ability to bind to recombinant human LAG-3 ECD with a C-terminal His6 (SEQ ID NO:51) using the Biacore™ T100 (GE Healthcare™). Protein A was immobilised on a CM5 chip by primary amine coupling. This surface was then used to capture the humanised antibodies. Recombinant human LAG-3 ECD-His6 was then passed over the captured antibodies at 32, 8, 2, 0.5 and 0.125 nM and regeneration was carried out using 50 mM NaOH. The binding curves were double referenced with buffer injection (i.e. 0 nM) and the data was fitted to the T100 analysis software using the 1:1 model. The run was carried out at 25° C., using HBS-EP as the running buffer.
(§2) In order to investigate the statistical significance of this kinetic data, this experiment was repeated 3 times with the same batch of the four antibodies and the chimeric control. KD, ka and kd parameters were each log (base 10) transformed prior to separate statistical analyses. For each parameter, a mixed model analysis of variance (‘Anova’) was performed on transformed data, including terms for Run (random block effect) and Antibody.
(SPR reads the build-up and loss of mass on a sensor chip optically.)

The target in another experiment is T2, Human LAG-3 on cells (human, UniProt P18627 23-525).
T2 construct: whole, on cells; also called human LAG-3 expressing EL4 cells
T2 sequence (looked up): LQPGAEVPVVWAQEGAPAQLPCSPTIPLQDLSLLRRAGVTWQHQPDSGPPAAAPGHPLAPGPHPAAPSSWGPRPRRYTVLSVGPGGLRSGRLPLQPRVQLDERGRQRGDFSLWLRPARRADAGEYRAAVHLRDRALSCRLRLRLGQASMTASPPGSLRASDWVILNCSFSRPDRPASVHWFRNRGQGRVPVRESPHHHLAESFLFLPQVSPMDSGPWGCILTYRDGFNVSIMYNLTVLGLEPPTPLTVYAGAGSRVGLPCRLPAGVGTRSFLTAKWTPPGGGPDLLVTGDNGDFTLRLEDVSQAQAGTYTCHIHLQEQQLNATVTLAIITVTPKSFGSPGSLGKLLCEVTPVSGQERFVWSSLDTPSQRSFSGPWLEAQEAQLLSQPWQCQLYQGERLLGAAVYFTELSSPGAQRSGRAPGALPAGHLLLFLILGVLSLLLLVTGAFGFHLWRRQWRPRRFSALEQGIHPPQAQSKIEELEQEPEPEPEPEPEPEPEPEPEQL
The experiment is described as follows: Flow cytometry (MFI dose response) on human LAG-3 expressing EL4 cells. On the procedure: Human LAG-3 expressing EL4 cells were incubated with either IMP731, H5L7WT or H5L7BW Alexa647-conjugated antibodies at varying concentrations of up to 50 μg/ml for 30 minutes at room temperature. Cells were washed with FACS buffer (PBS+0.5% BSA) to remove unbound antibody.
EL4 cells and CD3⁺ T cells were analysed by FACS using a Beckman Coulter FC 500 flow cytometer. FACS raw data were analysed using CXP Analysis software (Beckman Coulter). The data was initially plotted on a forward-scatter versus side-scatter plot and the population of cells of interest were gated. This gated population was then plotted as a histogram displaying fluorescence intensity and the mean fluorescence intensity (MFI) calculated. MFI values were then plotted in GraphPad Prism 5 software to generate dose response curves.
(In general: A flow cytometer gives signals particle by particle.)

Experiment [2] concerns the target T1, Recombinant human LAG-3 ECD-His6. Kind of experiment: SPR Biacore T100, Anova comparison of kd, 3 runs. On the procedure: as §1, §2

B1: H5L7BW (antibody, human IgG1, kappa, V domains shown)
VH: QVQLQESGPGLVKPSETLSLTCTVSGFSLTAYGVNWIRQPPGKGLEWIGMIWDDGSTDYDSALKSRVTISVDTSKNQFSLKLSSVTAADTAVYYCAREGDVAFDYWGQGTLVTVSS
VL: DIQMTQSPSSLSASVGDRVTITCKSSQSLLNPSNQKNYLAWYQQKPGKAPKLLVYFASTRDSGVPSRFSGSGSGTDFTLTISSLQPEDFATYYCLQHFGTPPTFGQGTKLEIKR
modifications: afucosylated Fc glycan (expressed in BioWa Potelligent FUT8 knock-out CHO cell line)
notes: differs only by lack of fucose; also called afucosylated H5L7BW; afucosylated H5L7
For the molecule B1, in experiment [1], the “KD ratio against H5L7” value stood at 1.05. Moreover, the concentration giving a half-maximal response (EC50 (read off the curve)) with Human LAG-3 on cells is roughly 0.02 µg/mL. The “kd ratio against H5L7” value in experiment [2] is 1.12.

B2: H5L7 (antibody, human IgG1, kappa, V domains shown)
VH: QVQLQESGPGLVKPSETLSLTCTVSGFSLTAYGVNWIRQPPGKGLEWIGMIWDDGSTDYDSALKSRVTISVDTSKNQFSLKLSSVTAADTAVYYCAREGDVAFDYWGQGTLVTVSS
VL: DIQMTQSPSSLSASVGDRVTITCKSSQSLLNPSNQKNYLAWYQQKPGKAPKLLVYFASTRDSGVPSRFSGSGSGTDFTLTISSLQPEDFATYYCLQHFGTPPTFGQGTKLEIKR
notes: wild type fucosylated form; also called H5L7WT; fucosylated H5L7
Turning to B2, in experiment [1], the “KD ratio against IMP731” value was 0.0774 and the “fold decrease of KD against IMP731” value turned out to be 10 fold. In the experiment with Human LAG-3 on cells, the “EC50 (read off the curve)” value is roughly 0.02 µg/mL. In experiment [2], the “fold decrease of kd against IMP731” value was roughly 10 fold and the “kd ratio against IMP731” value is 0.155.

B3: IMP731 (antibody, human IgG1, kappa, V domains shown)
VH: QVQLKESGPGLVAPSQSLSITCTVSGFSLTAYGVNWVRQPPGKGLEWLGMIWDDGSTDYNSALKSRLSISKDNSKSQVFLKMNSLQTDDTARYYCAREGDVAFDYWGQGTTLTVSS
VL: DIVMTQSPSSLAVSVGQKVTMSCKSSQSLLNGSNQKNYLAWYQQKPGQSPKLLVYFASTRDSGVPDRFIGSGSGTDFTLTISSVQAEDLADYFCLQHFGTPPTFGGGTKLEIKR
notes: Chimeric anti-LAG-3 antibody, parent of the humanised variants; also called chimeric IMP731; chimeric control
Regarding B3, the “EC50 (read off the curve)” value with Human LAG-3 on cells was roughly 0.01 µg/mL.

In general, EC50 (read off the curve) refers to the concentration giving half of the maximal effect.
